Each binder was assayed against T1, recombinant human IL-1 beta (human, UniProt P01584 117-269) (assay: ELISA, cleared E. coli lysate on coated rhIL-1 beta).
T1 construct: Bought protein; also called rhIL-1 beta; rhIL1-beta
Experimental: The resulting scFv mutants are expressed in 96-well format in 1 ml cultures in E. coli BL21 (DE3) (Novagen, USA, cat. no. 69450-3). […] Cells were lysed in lysis buffer (1 mM EDTA, 0.1 mg/ml lysozyme, PBS pH 7.2) in a 96-well format by freezing and subsequent thawing. Derived crude extracts were cleared by centrifugation. Supernatants were added to wells of a microtiterplate coated with 50 ng/ml of rhIL-1 beta (Peprotech) per well. After washing, bound scFvs are detected by ProteinL-HRP and binding to rhIL-1 beta quantified by BM Blue POD Substrate (Roche Applied Science).

| binding result | Binder |
| --- | --- |
| binds | DLX2680 (scFv, tested as cleared E. coli lysate; also called DLX2529_2530) scFv: EIVMTQSPSTLSASVGDRVIITCRASQSIGNWLSWYQQKPGKAPKLLIYRASNLASGVPSRFSGSGSGAEFTLTISSLQPEDFATYYCQNTGGGINIAFGQGTKLTVLGGGGGSGGGGSGGGGSGGGGSEVQLVESGGGNVQPGGSLRLSCTASGFSLSDAAMAWVRQAPGKGLEWVGIIYDSASTFYASWAKGRFTISRDNSKNTLYLQMNSLRAEDTATYYCARERNIFSGDMALWGQGTTVTVSS |
| binds | DLX2679 (scFv, tested as cleared E. coli lysate; also called DLX2528_2585) scFv: EIVMTQSPSTLSASVGDRVTITCQASQSIGNWLAWYQQKPGKAPKLLIYQASNLASGVPSRFSGSGSGTDFTLTISSLQPDDFATYYCQNAGGATTIAFGQGTKLTVLGGGGGSGGGGSGGGGSGGGGSEVQLVESGGGLVQPGGSLRLSCTVSGFSLSSYAMSWVRQAPGKGLEWVGIIYDSASTYYASWAKGRFTISKDTSKNTVYLQMNSLRAEDTAVYYCARERAIFSGDFDYWGQGTLVTVSS |
| binds | DLX2676 (scFv, tested as cleared E. coli lysate; also called DLX2528_2530) scFv: EIVMTQSPSTLSASVGDRVTITCQASQSIGNWLAWYQQKPGKAPKLLIYQASNLASGVPSRFSGSGSGTDFTLTISSLQPDDFATYYCQNAGGATTIAFGQGTKLTVLGGGGGSGGGGSGGGGSGGGGSEVQLVESGGGNVQPGGSLRLSCTASGFSLSDAAMAWVRQAPGKGLEWVGIIYDSASTFYASWAKGRFTISRDNSKNTLYLQMNSLRAEDTATYYCARERNIFSGDMALWGQGTTVTVSS |
| binds | DLX2685 (scFv, tested as cleared E. coli lysate; also called DLX2543_2531) scFv: EIVMTQSPSTLSASVGDRVTITCQASQSISSWLSWYQQKPGKAPKLLIYKASTLASGVPSRFSGSGSGTEFTLTISSLQPDDFATYYCQNAGGGVSIAFGQGTKLTVLGGGGGSGGGGSGGGGSGGGGSEVQLVESGGGNVQPGGSLRLSCTASGFSLSNSAMAWVRQAPGKGLEWVGIIYDSASTYYASWAKGRFTISRDNSKNTVYLQMNSLRAEDTATYYCARERAIFSGDFALWGQGTLVTVSS |
| binds | DLX2678 (scFv, tested as cleared E. coli lysate; also called DLX2528_2548) scFv: EIVMTQSPSTLSASVGDRVTITCQASQSIGNWLAWYQQKPGKAPKLLIYQASNLASGVPSRFSGSGSGTDFTLTISSLQPDDFATYYCQNAGGATTIAFGQGTKLTVLGGGGGSGGGGSGGGGSGGGGSEVQLVESGGGLVQPGGSLRLSCTVSGFSLSSYAMSWVRQAPGKGLEWIGIIYDSASTYYASWAKGRFTISKDTSKNTLYLQMNSLRAEDTAVYFCARERQIFSGDMDGWGQGTTVTVSS |
| binds | DLX2689 (scFv, tested as cleared E. coli lysate; also called DLX2544_2531) scFv: ADIVMTQSPSTLSASVGDRVTITCQASQSISSYLSWYQQKPGKAPKLLIYKASTLASGVPSRFSGSGSGTDFTLTISSLQPEDFATYYCQNAGGGINIAFGQGTKVEIKRGGGGSGGGGSGGGGSGGGGSEVQLVESGGGNVQPGGSLRLSCTASGFSLSNSAMAWVRQAPGKGLEWVGIIYDSASTYYASWAKGRFTISRDNSKNTVYLQMNSLRAEDTATYYCARERAIFSGDFALWGQGTLVTVSS |
| binds | DLX2691 (scFv, tested as cleared E. coli lysate; also called DLX2544_2585) scFv: ADIVMTQSPSTLSASVGDRVTITCQASQSISSYLSWYQQKPGKAPKLLIYKASTLASGVPSRFSGSGSGTDFTLTISSLQPEDFATYYCQNAGGGINIAFGQGTKVEIKRGGGGSGGGGSGGGGSGGGGSEVQLVESGGGLVQPGGSLRLSCTVSGFSLSSYAMSWVRQAPGKGLEWVGIIYDSASTYYASWAKGRFTISKDTSKNTVYLQMNSLRAEDTAVYYCARERAIFSGDFDYWGQGTLVTVSS |
| binds | DLX2694 (scFv, tested as cleared E. coli lysate; also called DLX2547_2548) scFv: ADIVMTQSPSTLSASVGDRVTITCQASQSISSYLSWYQQKPGKAPKLLIYRASTLASGVPSRFSGSGSGAEFTLTISSLQPDDFATYYCQNTGGGINIAFGQGTKLEIKRGGGGSGGGGSGGGGSGGGGSEVQLVESGGGLVQPGGSLRLSCTVSGFSLSSYAMSWVRQAPGKGLEWIGIIYDSASTYYASWAKGRFTISKDTSKNTLYLQMNSLRAEDTAVYFCARERQIFSGDMDGWGQGTTVTVSS |

Further lines, the binder ahead of its results:

| Binder | binding result |
| --- | --- |
| DLX2687 (scFv, tested as cleared E. coli lysate; also called DLX2543_2585) scFv: EIVMTQSPSTLSASVGDRVTITCQASQSISSWLSWYQQKPGKAPKLLIYKASTLASGVPSRFSGSGSGTEFTLTISSLQPDDFATYYCQNAGGGVSIAFGQGTKLTVLGGGGGSGGGGSGGGGSGGGGSEVQLVESGGGLVQPGGSLRLSCTVSGFSLSSYAMSWVRQAPGKGLEWVGIIYDSASTYYASWAKGRFTISKDTSKNTVYLQMNSLRAEDTAVYYCARERAIFSGDFDYWGQGTLVTVSS | binds |
| DLX2682 (scFv, tested as cleared E. coli lysate; also called DLX2529_2548) scFv: EIVMTQSPSTLSASVGDRVIITCRASQSIGNWLSWYQQKPGKAPKLLIYRASNLASGVPSRFSGSGSGAEFTLTISSLQPEDFATYYCQNTGGGINIAFGQGTKLTVLGGGGGSGGGGSGGGGSGGGGSEVQLVESGGGLVQPGGSLRLSCTVSGFSLSSYAMSWVRQAPGKGLEWIGIIYDSASTYYASWAKGRFTISKDTSKNTLYLQMNSLRAEDTAVYFCARERQIFSGDMDGWGQGTTVTVSS | binds |
| DLX2683 (scFv, tested as cleared E. coli lysate; also called DLX2529_2585) scFv: EIVMTQSPSTLSASVGDRVIITCRASQSIGNWLSWYQQKPGKAPKLLIYRASNLASGVPSRFSGSGSGAEFTLTISSLQPEDFATYYCQNTGGGINIAFGQGTKLTVLGGGGGSGGGGSGGGGSGGGGSEVQLVESGGGLVQPGGSLRLSCTVSGFSLSSYAMSWVRQAPGKGLEWVGIIYDSASTYYASWAKGRFTISKDTSKNTVYLQMNSLRAEDTAVYYCARERAIFSGDFDYWGQGTLVTVSS | binds |
| DLX2684 (scFv, tested as cleared E. coli lysate; also called DLX2543_2530) scFv: EIVMTQSPSTLSASVGDRVTITCQASQSISSWLSWYQQKPGKAPKLLIYKASTLASGVPSRFSGSGSGTEFTLTISSLQPDDFATYYCQNAGGGVSIAFGQGTKLTVLGGGGGSGGGGSGGGGSGGGGSEVQLVESGGGNVQPGGSLRLSCTASGFSLSDAAMAWVRQAPGKGLEWVGIIYDSASTFYASWAKGRFTISRDNSKNTLYLQMNSLRAEDTATYYCARERNIFSGDMALWGQGTTVTVSS | binds |
| DLX2677 (scFv, tested as cleared E. coli lysate; also called DLX2528_2531) scFv: EIVMTQSPSTLSASVGDRVTITCQASQSIGNWLAWYQQKPGKAPKLLIYQASNLASGVPSRFSGSGSGTDFTLTISSLQPDDFATYYCQNAGGATTIAFGQGTKLTVLGGGGGSGGGGSGGGGSGGGGSEVQLVESGGGNVQPGGSLRLSCTASGFSLSNSAMAWVRQAPGKGLEWVGIIYDSASTYYASWAKGRFTISRDNSKNTVYLQMNSLRAEDTATYYCARERAIFSGDFALWGQGTLVTVSS | binds |
| DLX2695 (scFv, tested as cleared E. coli lysate; also called DLX2547_2585) scFv: ADIVMTQSPSTLSASVGDRVTITCQASQSISSYLSWYQQKPGKAPKLLIYRASTLASGVPSRFSGSGSGAEFTLTISSLQPDDFATYYCQNTGGGINIAFGQGTKLEIKRGGGGSGGGGSGGGGSGGGGSEVQLVESGGGLVQPGGSLRLSCTVSGFSLSSYAMSWVRQAPGKGLEWVGIIYDSASTYYASWAKGRFTISKDTSKNTVYLQMNSLRAEDTAVYYCARERAIFSGDFDYWGQGTLVTVSS | binds |
